Biological target: UNG2-Fluor (human, UniProt P13051 =C+1-313, C141A;C166A;C290A;internal_change)
Experiment: fluorescence quenching titration; 1 mM MgCl2; 10 mM Tris-Cl, 0.1 mM EDTA, pH 8.0, 2 mM NaCl carry-over, MgCl2 varied, 22 C, 50 nM UNG2-Fluor; ex 495 nm, em 520 nm
Settings: protein: recombinant; tags: N-terminal fluorescein (maleimide on added Cys); label: 5' Iowa Black FQ; single strand

Sequence of UNG2-Fluor (P13051 other isoform, or with tags, fused parts or gaps C141A;C166A;C290A;): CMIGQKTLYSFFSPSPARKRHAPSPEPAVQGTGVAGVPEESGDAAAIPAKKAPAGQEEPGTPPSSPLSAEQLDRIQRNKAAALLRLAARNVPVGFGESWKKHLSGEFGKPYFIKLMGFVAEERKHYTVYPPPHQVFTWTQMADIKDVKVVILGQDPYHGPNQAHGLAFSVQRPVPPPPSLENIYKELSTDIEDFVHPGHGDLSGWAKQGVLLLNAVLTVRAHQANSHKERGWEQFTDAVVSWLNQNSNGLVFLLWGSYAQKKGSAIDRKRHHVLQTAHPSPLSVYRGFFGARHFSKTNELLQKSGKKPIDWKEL

## TCAGGTGAATCGATAGCTAAGAGCATG (ssDNA) [27 nt dark quencher ssDNA]
  Kd: 3 nM

## CGATAG (ssDNA) [6 nt dark quencher ssDNA]
  Kd: 1000 nM
